Numbering of substitutions follows the chain as printed.
B1: H183/L072 VL Q24T (antibody, name in Kabat numbering, V domains shown)
VH: QVQLVESGGGLVQPGRSLRLSCAASGFTFSNAWMHWVRQAPGKGLEWVAQIKDKGNAYAAYYAPSVKGRFTISRDDSKNSIYLQMNSLKTEDTAVYYCHYVHYASASTVLPAFGVDAWGQGTTVTVSS
VL: DIVMTQSPLSLPVTPGEPASISCTASQELVHMNRNTYLHWYQQKPGQAPRLLIYKVSNRFPGVPDRFSGSGSGTDFTLKISRVEAEDVGVYYCAQGTSVPFTFGQGTKLEIK
notes: Dual-Ig
B2: H183/L072 VL Q27V (antibody, name in Kabat numbering, V domains shown)
VH: B1 VH
VL: B1 VL with T24Q, Q27V
notes: Dual-Ig
B3: H183/L072 VL Q90I (antibody, name in Kabat numbering, V domains shown)
VH: B1 VH
VL: B1 VL with T24Q, Q95I
notes: Dual-Ig
B4: H183/L072 VL Q27S (antibody, name in Kabat numbering, V domains shown)
VH: B1 VH
VL: B1 VL with T24Q, Q27S
notes: Dual-Ig
B5: H183/L072 VL Q27M (antibody, name in Kabat numbering, V domains shown)
VH: B1 VH
VL: B1 VL with T24Q, Q27M
notes: Dual-Ig
B6: H183/L072 VL Q27T (antibody, name in Kabat numbering, V domains shown)
VH: B1 VH
VL: B1 VL with T24Q, Q27T
notes: Dual-Ig
B7: H183/L072 VL Q90W (antibody, name in Kabat numbering, V domains shown)
VH: B1 VH
VL: B1 VL with T24Q, Q95W
notes: Dual-Ig
B8: H183/L072 VL Q27G (antibody, name in Kabat numbering, V domains shown)
VH: B1 VH
VL: B1 VL with T24Q, Q27G
notes: Dual-Ig
B9: H183/L072 VL Q27E (antibody, name in Kabat numbering, V domains shown)
VH: B1 VH
VL: B1 VL with T24Q, Q27E
notes: Dual-Ig
B10: H183/L072 VL Q24V (antibody, name in Kabat numbering, V domains shown)
VH: B1 VH
VL: B1 VL with T24V
notes: Dual-Ig
B11: H183/L072 VL Q27N (antibody, name in Kabat numbering, V domains shown)
VH: B1 VH
VL: B1 VL with T24Q, Q27N
notes: Dual-Ig
B12: H183/L072 VL Q90P (antibody, name in Kabat numbering, V domains shown)
VH: B1 VH
VL: B1 VL with T24Q, Q95P
notes: Dual-Ig
B13: H183/L072 VL Q90T (antibody, name in Kabat numbering, V domains shown)
VH: B1 VH
VL: B1 VL with T24Q, Q95T
notes: Dual-Ig
B14: H183/L072 VL Q90S (antibody, name in Kabat numbering, V domains shown)
VH: B1 VH
VL: B1 VL with T24Q, Q95S
notes: Dual-Ig
B15: H183/L072 VL Q27W (antibody, name in Kabat numbering, V domains shown)
VH: B1 VH
VL: B1 VL with T24Q, Q27W
notes: Dual-Ig
B16: H183/L072 VL R29A (antibody, name in Kabat numbering, V domains shown)
VH: B1 VH
VL: B1 VL with T24Q, R34A
notes: Dual-Ig
B17: H183/L072 VL Q24W (antibody, name in Kabat numbering, V domains shown)
VH: B1 VH
VL: B1 VL with T24W
notes: Dual-Ig
B18: H183/L072 VL Q90D (antibody, name in Kabat numbering, V domains shown)
VH: B1 VH
VL: B1 VL with T24Q, Q95D
notes: Dual-Ig
B19: H183/L072 VL R29F (antibody, name in Kabat numbering, V domains shown)
VH: B1 VH
VL: B1 VL with T24Q, R34F
notes: Dual-Ig
B20: H183/L072 VL Q27L (antibody, name in Kabat numbering, V domains shown)
VH: B1 VH
VL: B1 VL with T24Q, Q27L
notes: Dual-Ig
B21: H183/L072 VL Q27I (antibody, name in Kabat numbering, V domains shown)
VH: B1 VH
VL: B1 VL with T24Q, Q27I
notes: Dual-Ig
B22: H183/L072 VL Q90N (antibody, name in Kabat numbering, V domains shown)
VH: B1 VH
VL: B1 VL with T24Q, Q95N
notes: Dual-Ig
B23: H183/L072 VL Q90V (antibody, name in Kabat numbering, V domains shown)
VH: B1 VH
VL: B1 VL with T24Q, Q95V
notes: Dual-Ig
B24: H183/L072 VL Q27R (antibody, name in Kabat numbering, V domains shown)
VH: B1 VH
VL: B1 VL with T24Q, Q27R
notes: Dual-Ig
B25: H183/L072 VL Q90G (antibody, name in Kabat numbering, V domains shown)
VH: B1 VH
VL: B1 VL with T24Q, Q95G
notes: Dual-Ig
B26: H183/L072 VL Q27A (antibody, name in Kabat numbering, V domains shown)
VH: B1 VH
VL: B1 VL with T24Q, Q27A
notes: Dual-Ig
B27: H183/L072 VL R29E (antibody, name in Kabat numbering, V domains shown)
VH: B1 VH
VL: B1 VL with T24Q, R34E
notes: Dual-Ig
B28: H183/L072 VL R29D (antibody, name in Kabat numbering, V domains shown)
VH: B1 VH
VL: B1 VL with T24Q, R34D
notes: Dual-Ig
B29: H183/L072 VL Q90A (antibody, name in Kabat numbering, V domains shown)
VH: B1 VH
VL: B1 VL with T24Q, Q95A
notes: Dual-Ig
B30: H183/L072 VL Q27F (antibody, name in Kabat numbering, V domains shown)
VH: B1 VH
VL: B1 VL with T24Q, Q27F
notes: Dual-Ig
B31: H183/L072 VL Q90H (antibody, name in Kabat numbering, V domains shown)
VH: B1 VH
VL: B1 VL with T24Q, Q95H
notes: Dual-Ig
B32: H183/L072 VL Q90R (antibody, name in Kabat numbering, V domains shown)
VH: B1 VH
VL: B1 VL with T24Q, Q95R
notes: Dual-Ig
B33: H183/L072 VL Q27K (antibody, name in Kabat numbering, V domains shown)
VH: B1 VH
VL: B1 VL with T24Q, Q27K
notes: Dual-Ig
B34: H183/L072 VL R29G (antibody, name in Kabat numbering, V domains shown)
VH: B1 VH
VL: B1 VL with T24Q, R34G
notes: Dual-Ig
B35: H183/L072 VL Q90F (antibody, name in Kabat numbering, V domains shown)
VH: B1 VH
VL: B1 VL with T24Q, Q95F
notes: Dual-Ig
B36: H183/L072 VL Q90M (antibody, name in Kabat numbering, V domains shown)
VH: B1 VH
VL: B1 VL with T24Q, Q95M
notes: Dual-Ig
B37: H183/L072 VL Q27D (antibody, name in Kabat numbering, V domains shown)
VH: B1 VH
VL: B1 VL with T24Q, Q27D
notes: Dual-Ig
B38: H183/L072 VL Q90L (antibody, name in Kabat numbering, V domains shown)
VH: B1 VH
VL: B1 VL with T24Q, Q95L
notes: Dual-Ig
B39: H183/L072 VL Q90K (antibody, name in Kabat numbering, V domains shown)
VH: B1 VH
VL: B1 VL with T24Q, Q95K
notes: Dual-Ig
B40: H183/L072 VL Q27P (antibody, name in Kabat numbering, V domains shown)
VH: B1 VH
VL: B1 VL with T24Q, Q27P
notes: Dual-Ig
B41: H183/L072 VL Q27Y (antibody, name in Kabat numbering, V domains shown)
VH: B1 VH
VL: B1 VL with T24Q, Q27Y
notes: Dual-Ig
B42: H183/L072 VL Q27H (antibody, name in Kabat numbering, V domains shown)
VH: B1 VH
VL: B1 VL with T24Q, Q27H
notes: Dual-Ig
B43: H183/L072 VL Q24Y (antibody, name in Kabat numbering, V domains shown)
VH: B1 VH
VL: B1 VL with T24Y
notes: Dual-Ig
B44: H183/L072 VL Q90E (antibody, name in Kabat numbering, V domains shown)
VH: B1 VH
VL: B1 VL with T24Q, Q95E
notes: Dual-Ig

Biological target: T1, Human CD137 ECD (human)
T1 construct: entry includes C-terminal His-tag and biotin acceptor peptide; also called human CD137 extracellular domain; 4-1BB
Experiment: Biacore SPR, vs parent H183/L072

T1 sequence (chain, as listed by the source limits assumed): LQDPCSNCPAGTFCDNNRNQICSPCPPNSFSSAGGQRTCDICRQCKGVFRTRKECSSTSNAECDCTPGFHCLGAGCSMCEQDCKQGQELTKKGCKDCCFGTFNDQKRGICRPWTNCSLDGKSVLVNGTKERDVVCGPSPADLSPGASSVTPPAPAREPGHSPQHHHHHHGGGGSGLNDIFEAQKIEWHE

Binder | fold change of affinity [fold]
B1 | 1
B2 | 0.8
B3 | 0
B4 | 0.8
B5 | 0.9
B6 | 0.9
B7 | 0
B8 | 0.9
B9 | 1
B10 | 0.9
B11 | 0.8
B12 | 0
B13 | 0
B14 | 0
B15 | 0.5
B16 | 0.8
B17 | 1
B18 | 0
B19 | 0.7
B20 | 0.8
B21 | 0.7
B22 | 0

Binder | fold change of affinity [fold]
B23 | 0
B24 | 0.9
B25 | 0
B26 | 1
B27 | 0.4
B28 | 0.3
B29 | 0
B30 | 0.6
B31 | 0.2
B32 | 0
B33 | 0.9
B34 | 1.1
B35 | 0
B36 | 0
B37 | 0.9
B38 | 0
B39 | 0
B40 | 0.1
B41 | 0.7
B42 | 0.9
B43 | 0.9
B44 | 0
